Measured values: the array DNA melting data of Ke et al.

Test: melting temperature; melt of duplexes
Conditions: sodium 0.0675 M; strand 1 µM

Substance	Tm
CGACGTGCCTAATGTGCTG+CAGCACATTGCGCACGTCG ((((((((..(((((((((+)))))))))..))))))))	51 °C
CGACGTGCAACATGTGCTG+CAGCACATTTCGCACGTCG ((((((((.(.((((((((+)))))))).).))))))))	49 °C
CGACGTGCACAATGTGCTG+CAGCACATAAGGCACGTCG ((((((((...((((((((+))))))))...))))))))	46.8 °C
CGACGTGCCAGATGTGCTG+CAGCACATATTGCACGTCG ((((((((.(.((((((((+)))))))).).))))))))	50.1 °C
CGACGTGCGAGATGTGCTG+CAGCACATCGAGCACGTCG ((((((((..(((((((((+)))))))))..))))))))	64.5 °C
CGACGTGCTGGATGTGCTG+CAGCACATAATGCACGTCG ((((((((...((((((((+))))))))...))))))))	50.7 °C
CGACGTGCCTGATGTGCTG+CAGCACATCGAGCACGTCG ((((((((..(((((((((+)))))))))..))))))))	55.3 °C
CGACGTGCTATATGTGCTG+CAGCACATAACGCACGTCG ((((((((..(((((((((+)))))))))..))))))))	50.8 °C
CGACGTGCGATATGTGCTG+CAGCACATCTTGCACGTCG ((((((((.(.((((((((+)))))))).).))))))))	51.2 °C
CGACGTGCCCTATGTGCTG+CAGCACATGCAGCACGTCG ((((((((...((((((((+))))))))...))))))))	49.7 °C
CGACGTGCGCCATGTGCTG+CAGCACATAGGGCACGTCG ((((((((.(.((((((((+)))))))).).))))))))	52.8 °C
CGACGTGCGAGATGTGCTG+CAGCACATAGTGCACGTCG ((((((((...((((((((+))))))))...))))))))	47.6 °C
CGACGTGCAGAATGTGCTG+CAGCACATTTTGCACGTCG (((((((((.(((((((((+))))))))).)))))))))	57 °C
CGACGTGCACTATGTGCTG+CAGCACATACTGCACGTCG (((((((((.(((((((((+))))))))).)))))))))	48.8 °C
CGACGTGCCAAATGTGCTG+CAGCACATAAGGCACGTCG (((((((((..((((((((+))))))))..)))))))))	54.4 °C
CGACGTGCAGTATGTGCTG+CAGCACATACTGCACGTCG (((((((((((((((((((+)))))))))))))))))))	62.7 °C
CGACGTGCGTTATGTGCTG+CAGCACATTATGCACGTCG ((((((((.(.((((((((+)))))))).).))))))))	53 °C
CGACGTGCGTGATGTGCTG+CAGCACATATAGCACGTCG ((((((((...((((((((+))))))))...))))))))	52.5 °C
CGACGTGCCAGATGTGCTG+CAGCACATGAAGCACGTCG ((((((((...((((((((+))))))))...))))))))	50.5 °C
CGACGTGCAGCATGTGCTG+CAGCACATCCTGCACGTCG ((((((((((.((((((((+)))))))).))))))))))	53.9 °C
CGACGTGCGAGATGTGCTG+CAGCACATCTTGCACGTCG ((((((((.((((((((((+)))))))))).))))))))	60.2 °C
CGACGTGCCGAATGTGCTG+CAGCACATCACGCACGTCG ((((((((...((((((((+))))))))...))))))))	48.9 °C
CGACGTGCGTAATGTGCTG+CAGCACATGTCGCACGTCG (((((((((..((((((((+))))))))..)))))))))	56 °C
CGACGTGCCAAATGTGCTG+CAGCACATTTGGCACGTCG (((((((((((((((((((+)))))))))))))))))))	64.5 °C

Substance	Tm
CGACGTGCAAAATGTGCTG+CAGCACATCTTGCACGTCG ((((((((((.((((((((+)))))))).))))))))))	54 °C
CGACGTGCATTATGTGCTG+CAGCACATCGCGCACGTCG ((((((((...((((((((+))))))))...))))))))	45.8 °C
CGACGTGCTCTATGTGCTG+CAGCACATCCTGCACGTCG ((((((((...((((((((+))))))))...))))))))	47.8 °C
CGACGTGCCAGATGTGCTG+CAGCACATTCGGCACGTCG (((((((((..((((((((+))))))))..)))))))))	56.2 °C
CGACGTGCGAGATGTGCTG+CAGCACATTGTGCACGTCG ((((((((...((((((((+))))))))...))))))))	49.7 °C
CGACGTGCTAAATGTGCTG+CAGCACATCGCGCACGTCG ((((((((...((((((((+))))))))...))))))))	47.5 °C
CGACGTGCCGAATGTGCTG+CAGCACATTCCGCACGTCG ((((((((.((((((((((+)))))))))).))))))))	56 °C
CGACGTGCACTATGTGCTG+CAGCACATCCGGCACGTCG ((((((((...((((((((+))))))))...))))))))	43.2 °C
CGACGTGCCGCATGTGCTG+CAGCACATGACGCACGTCG ((((((((..(((((((((+)))))))))..))))))))	51.2 °C
CGACGTGCATTATGTGCTG+CAGCACATATAGCACGTCG ((((((((..(((((((((+)))))))))..))))))))	52.3 °C
CGACGTGCCCCATGTGCTG+CAGCACATGTCGCACGTCG ((((((((..(((((((((+)))))))))..))))))))	51.2 °C
CGACGTGCCAGATGTGCTG+CAGCACATTTCGCACGTCG ((((((((.(.((((((((+)))))))).).))))))))	49.6 °C
CGACGTGCAGGATGTGCTG+CAGCACATGTAGCACGTCG ((((((((...((((((((+))))))))...))))))))	50.4 °C
CGACGTGCACCATGTGCTG+CAGCACATACTGCACGTCG (((((((((..((((((((+))))))))..)))))))))	44.9 °C
CGACGTGCAACATGTGCTG+CAGCACATGCAGCACGTCG ((((((((..(((((((((+)))))))))..))))))))	53.9 °C
CGACGTGCCATATGTGCTG+CAGCACATGGCGCACGTCG ((((((((...((((((((+))))))))...))))))))	50.3 °C
CGACGTGCCATATGTGCTG+CAGCACATACGGCACGTCG (((((((((.(((((((((+))))))))).)))))))))	55.3 °C
CGACGTGCATTATGTGCTG+CAGCACATAGTGCACGTCG (((((((((.(((((((((+))))))))).)))))))))	53.1 °C
CGACGTGCGCCATGTGCTG+CAGCACATAACGCACGTCG (((((((((..((((((((+))))))))..)))))))))	52.4 °C
CGACGTGCGGAATGTGCTG+CAGCACATCCAGCACGTCG ((((((((.(.((((((((+)))))))).).))))))))	55.1 °C
CGACGTGCCGCATGTGCTG+CAGCACATAAAGCACGTCG ((((((((...((((((((+))))))))...))))))))	50.1 °C
CGACGTGCGACATGTGCTG+CAGCACATACGGCACGTCG ((((((((...((((((((+))))))))...))))))))	48.8 °C
CGACGTGCCAGATGTGCTG+CAGCACATCGGGCACGTCG (((((((((.(((((((((+))))))))).)))))))))	62.2 °C
CGACGTGCAGCATGTGCTG+CAGCACATGCGGCACGTCG ((((((((.((((((((((+)))))))))).))))))))	61.6 °C

Substance	Tm
CGACGTGCAAAATGTGCTG+CAGCACATTCCGCACGTCG ((((((((..(((((((((+)))))))))..))))))))	50.6 °C
CGACGTGCCTAATGTGCTG+CAGCACATTTTGCACGTCG ((((((((..(((((((((+)))))))))..))))))))	51.1 °C
CGACGTGCACGATGTGCTG+CAGCACATGGTGCACGTCG ((((((((((.((((((((+)))))))).))))))))))	55.8 °C
CGACGTGCGATATGTGCTG+CAGCACATCCGGCACGTCG ((((((((...((((((((+))))))))...))))))))	49.3 °C
CGACGTGCACCATGTGCTG+CAGCACATCCAGCACGTCG ((((((((...((((((((+))))))))...))))))))	42.2 °C
CGACGTGCTCAATGTGCTG+CAGCACATTAAGCACGTCG (((((((((.(((((((((+))))))))).)))))))))	54.4 °C
CGACGTGCGTCATGTGCTG+CAGCACATGCCGCACGTCG (((((((((.(((((((((+))))))))).)))))))))	59.9 °C
CGACGTGCTTTATGTGCTG+CAGCACATTGAGCACGTCG (((((((((..((((((((+))))))))..)))))))))	52 °C
CGACGTGCGTAATGTGCTG+CAGCACATTGGGCACGTCG ((((((((..(((((((((+)))))))))..))))))))	55 °C
CGACGTGCCAAATGTGCTG+CAGCACATATTGCACGTCG ((((((((.(.((((((((+)))))))).).))))))))	48.9 °C
CGACGTGCCCGATGTGCTG+CAGCACATAACGCACGTCG ((((((((...((((((((+))))))))...))))))))	47.6 °C
CGACGTGCTACATGTGCTG+CAGCACATGCCGCACGTCG ((((((((..(((((((((+)))))))))..))))))))	52.3 °C
CGACGTGCGTGATGTGCTG+CAGCACATCCGGCACGTCG ((((((((..(((((((((+)))))))))..))))))))	55.7 °C
CGACGTGCTGAATGTGCTG+CAGCACATATAGCACGTCG (((((((((..((((((((+))))))))..)))))))))	53.7 °C
CGACGTGCGCCATGTGCTG+CAGCACATTTAGCACGTCG ((((((((...((((((((+))))))))...))))))))	50.1 °C
CGACGTGCATCATGTGCTG+CAGCACATCACGCACGTCG ((((((((.(.((((((((+)))))))).).))))))))	46.6 °C
CGACGTGCACGATGTGCTG+CAGCACATGAAGCACGTCG ((((((((...((((((((+))))))))...))))))))	46.2 °C
CGACGTGCTATATGTGCTG+CAGCACATGTGGCACGTCG ((((((((.(.((((((((+)))))))).).))))))))	53.6 °C
CGACGTGCCCGATGTGCTG+CAGCACATTCCGCACGTCG ((((((((...((((((((+))))))))...))))))))	48.2 °C
CGACGTGCTAGATGTGCTG+CAGCACATTAAGCACGTCG (((((((((..((((((((+))))))))..)))))))))	53.3 °C
CGACGTGCGCCATGTGCTG+CAGCACATTAGGCACGTCG ((((((((...((((((((+))))))))...))))))))	48.3 °C
CGACGTGCTTAATGTGCTG+CAGCACATGATGCACGTCG ((((((((.(.((((((((+)))))))).).))))))))	53 °C
CGACGTGCTAAATGTGCTG+CAGCACATGAGGCACGTCG ((((((((...((((((((+))))))))...))))))))	53.4 °C
CGACGTGCACAATGTGCTG+CAGCACATTGTGCACGTCG (((((((((((((((((((+)))))))))))))))))))	63 °C
